For 66 variants, abundance fitness results are on record in the Human Domainome abundance scans (Beltran et al. 2025).

± gives the uncertainty stated by the source.

To fix the notation:
B1: Zinc finger MYM-type protein 2, residues 463 to 506; numbered along this chain, Q9UBW7 (parent)
chain: IMNCCEQCGEYLPSKGAGNNVLVIDGQQKRFCCQSCVSEYKQVG

The variants in this series derive from B1. Nature of the series: abundance fitness (aPCA) (normalised: wild type 0, dead -1); higher = more abundant; growth selection in yeast, the domain comes from the species named. As to conditions: Homo sapiens.
For IMNCCEQCGEYLPSKGAGNNVLVIDGQQKRFICQSCVSEYKQVG, the abundance fitness was -0.71 ± 0.18.

Consider IMNCCEQCGEYLPSKGAGNNVLVIDGQQKRFPCQSCVSEYKQVG, for which the abundance fitness is -0.454 ± 0.1.

Regarding IMNCCEQCGEYLPSKGAGNNVLVIDGQQKRFRCQSCVSEYKQVG, the abundance fitness is -0.298 ± 0.073.

Consider IMNCCEQCGEYLPSKGAGNNVLVWDGQQKRFCCQSCVSEYKQVG, for which the abundance fitness is -0.05 ± 0.083.

On to IMNCCEQCGEYLPSKGAGNNVLVVDGQQKRFCCQSCVSEYKQVG, for which the abundance fitness is -0.088 ± 0.12.

In the case of IMNCCEQCGEYLPSKGAGNNVLVGDGQQKRFCCQSCVSEYKQVG, the abundance fitness is -0.066 ± 0.084.

Turning to IMNCCEQCGEYLPSKGAGNNVLVIDGQQKRFCCQSCVSTYKQVG, the abundance fitness was 0.093 ± 0.13.

Turning to IMNCCEQCGEYLPSKGAGNNVLVIDGQQKRFCCQSCVSVYKQVG, the abundance fitness was determined as 0.086 ± 0.087.

Consider IMNCCEQCGEDLPSKGAGNNVLVIDGQQKRFCCQSCVSEYKQVG, for which the abundance fitness was determined as 0.282 ± 0.11.

On to IMNCCEQCGELLPSKGAGNNVLVIDGQQKRFCCQSCVSEYKQVG, for which the abundance fitness is 0.034 ± 0.1.

In the case of IMNCCEQCGEKLPSKGAGNNVLVIDGQQKRFCCQSCVSEYKQVG, the abundance fitness amounted to 0.361 ± 0.13.

IMNCCEQCGEYLPSKGAGNNVLVIDGQNKRFCCQSCVSEYKQVG: the abundance fitness was -0.29 ± 0.18.

On to IMNCCEQCGEYLPSKGAGNNVLVIDGQMKRFCCQSCVSEYKQVG, for which the abundance fitness is -0.123 ± 0.15.

Turning to IMNCCEQCGEYLPSKGAGNNVLVIFGQQKRFCCQSCVSEYKQVG, the abundance fitness was -0.174 ± 0.16.

On to IMNCCEQCGEYLPSKGAGNNVLVIAGQQKRFCCQSCVSEYKQVG, for which the abundance fitness is -0.117 ± 0.12.

In the case of IMNCCEQCGEYLPSKGAGNNVLVIEGQQKRFCCQSCVSEYKQVG, the abundance fitness was -0.11 ± 0.085.

Regarding IMNCCEQCGEYLPSSGAGNNVLVIDGQQKRFCCQSCVSEYKQVG, the abundance fitness was 0.114 ± 0.13.

For the variant IMNCCEQCGEYLPSVGAGNNVLVIDGQQKRFCCQSCVSEYKQVG, the abundance fitness is 0.011 ± 0.1.

Turning to IMNCCEQCGEYLPSKGAGNNVLVIDGQQKRFCCYSCVSEYKQVG, the abundance fitness was -0.615 ± 0.47.

IMNCCEQCGEYLPSKGAGNNVLVIDGQQKRFCCRSCVSEYKQVG: the abundance fitness is -0.232 ± 0.077.

As for IMNCCEQCGEYLPSKGAGNNVLVIDRQQKRFCCQSCVSEYKQVG, the abundance fitness was -0.255 ± 0.07.

Take IMNCCEQCGQYLPSKGAGNNVLVIDGQQKRFCCQSCVSEYKQVG: the abundance fitness is -0.403 ± 0.092.

For IMECCEQCGEYLPSKGAGNNVLVIDGQQKRFCCQSCVSEYKQVG, the abundance fitness was -0.036 ± 0.087.

As to IMDCCEQCGEYLPSKGAGNNVLVIDGQQKRFCCQSCVSEYKQVG, the abundance fitness is -0.045 ± 0.12.

IMFCCEQCGEYLPSKGAGNNVLVIDGQQKRFCCQSCVSEYKQVG: the abundance fitness was -0.035 ± 0.34.

Consider IMWCCEQCGEYLPSKGAGNNVLVIDGQQKRFCCQSCVSEYKQVG, for which the abundance fitness was -0.402 ± 0.12.

For IMNCCEQCGEYLPSKGAGNNVLVIDGQQKRFCCQHCVSEYKQVG, the abundance fitness was -0.091 ± 0.2.

Turning to IMNCCEQCGEYLPSKGAGNNVLVIDGQQKRFCCQECVSEYKQVG, the abundance fitness was determined as 0.006 ± 0.1.

Consider IMNCCEQCGEYLPSKGAGNNVLVIDGQQKRFCCQQCVSEYKQVG, for which the abundance fitness was -0.065 ± 0.095.

With IMNCCEQCGEYLPSKGAGNNVLVIDGQQKRFCCQWCVSEYKQVG, the abundance fitness was -0.114 ± 0.088.

As to IMNCCGQCGEYLPSKGAGNNVLVIDGQQKRFCCQSCVSEYKQVG, the abundance fitness was -0.184 ± 0.076.

Regarding IMNCCKQCGEYLPSKGAGNNVLVIDGQQKRFCCQSCVSEYKQVG, the abundance fitness is -0.231 ± 0.1.

Regarding IMNCCEQCGEYLPSKGAGNNVLVIDGQQKRFCCQSSVSEYKQVG, the abundance fitness was -0.45 ± 0.086.

With IMNCCEQCGEYLPSKGAGNNVLVIDGQQKRFCCQSNVSEYKQVG, the abundance fitness is -0.273 ± 0.34.

As for IMNCCEQCGEYLPSKGAGNNVLVIDGQQKRFCCQSLVSEYKQVG, the abundance fitness was -0.423 ± 0.088.

On to IMNCCEQCGEYLPSKGAGNNVLVIDGQQKRFCCQSRVSEYKQVG, for which the abundance fitness was -0.37 ± 0.079.

Turning to IMNCCEQCGEYLPSKGAGNNVLVIDGQQKRFCCQSQVSEYKQVG, the abundance fitness was -0.201 ± 0.098.

For IMNCCEQCGEYLPSKGAGNNVLVIDGQQKRFCCQSEVSEYKQVG, the abundance fitness is -0.376 ± 0.092.

Regarding IMNCCEQCGEYLPSKGAGNNVLVIDGQQKRFCCQSCVSEYKQVW, the abundance fitness is -0.189 ± 0.088.

Regarding IMNCCEQCGEYLPSKGAGNNVLVIDGQQKRFCCQSCVSEYKQVQ, the abundance fitness was -0.471 ± 0.37.

For IMNCCEECGEYLPSKGAGNNVLVIDGQQKRFCCQSCVSEYKQVG, the abundance fitness is -0.26 ± 0.094.

With IMNCCECCGEYLPSKGAGNNVLVIDGQQKRFCCQSCVSEYKQVG, the abundance fitness is -0.034 ± 0.14.

As to IMNCCEMCGEYLPSKGAGNNVLVIDGQQKRFCCQSCVSEYKQVG, the abundance fitness is -0.152 ± 0.1.

Turning to IMNCCETCGEYLPSKGAGNNVLVIDGQQKRFCCQSCVSEYKQVG, the abundance fitness is -0.139 ± 0.13.

As for IMNCCEQCGEYLPSKGAGNNVLVIDGQQKRFCCQSCVSEGKQVG, the abundance fitness was 0.057 ± 0.096.

As for IMNCCEQCGEYLPSKGAGNNVLVIDGQQKRFCCQSCVSEPKQVG, the abundance fitness was determined as 0.192 ± 0.16.

Turning to IMNCCEQCGEYLPSKWAGNNVLVIDGQQKRFCCQSCVSEYKQVG, the abundance fitness is -0.319 ± 0.093.

Regarding IMNCCEQCGEYLPSKGAGNNVLVIDGQQKRFCCQSCVPEYKQVG, the abundance fitness was -0.329 ± 0.19.

IMNCCEQCGEYLPSKGAGNNVLVIDGQQKRFCCQSCVLEYKQVG: the abundance fitness was -0.038 ± 0.081.

Turning to IMNCCEQCGEYLPSKGAGNNVLVIDGQQKRFCCQSCVAEYKQVG, the abundance fitness is 0.019 ± 0.082.

On to IMNCCEQCGEYLPSKGAGNNVLVIDGQQKRFCCQSCVEEYKQVG, for which the abundance fitness was determined as 0.062 ± 0.09.

For IMNCCEQCGEYLPSKGAGNNVLVIDGQQKRFCCQSCVGEYKQVG, the abundance fitness is -0.024 ± 0.071.

For IQNCCEQCGEYLPSKGAGNNVLVIDGQQKRFCCQSCVSEYKQVG, the abundance fitness was -0.141 ± 0.24.

In the case of IMNCCEQCGEYLPSKGAGNNVLVIDGQQYRFCCQSCVSEYKQVG, the abundance fitness was -0.026 ± 0.15.

Turning to IMNCCEQCGEYLPSKGAGNNVLVIDGQQFRFCCQSCVSEYKQVG, the abundance fitness was -0.17 ± 0.089.

Turning to IMNCMEQCGEYLPSKGAGNNVLVIDGQQKRFCCQSCVSEYKQVG, the abundance fitness was -0.979 ± 0.35.

As for IMNCREQCGEYLPSKGAGNNVLVIDGQQKRFCCQSCVSEYKQVG, the abundance fitness is -0.697 ± 0.08.

On to IMNCEEQCGEYLPSKGAGNNVLVIDGQQKRFCCQSCVSEYKQVG, for which the abundance fitness is -0.377 ± 0.11.

Regarding IMNCPEQCGEYLPSKGAGNNVLVIDGQQKRFCCQSCVSEYKQVG, the abundance fitness is -0.854 ± 0.13.

As for IMNCDEQCGEYLPSKGAGNNVLVIDGQQKRFCCQSCVSEYKQVG, the abundance fitness is -0.637 ± 0.099.

For the variant IMNCCEQCGEYLPSKGAGNNVLVIDGQQKRFCCQSCWSEYKQVG, the abundance fitness is -0.093 ± 0.086.

For the variant IMNCCEQCGEYLPSKGAGNNVLVIDGQQKRFCCQSCQSEYKQVG, the abundance fitness is -0.024 ± 0.14.

As to IMNCCEQCGEYLPSKGAGNNVLVIDGQQKRFCCQSCPSEYKQVG, the abundance fitness was -0.135 ± 0.13.

With IMNCCEQCGEYLPSKGAGNNVLVIDGQQKRFCLQSCVSEYKQVG, the abundance fitness was -0.385 ± 0.097.

As to IMNCCEQCGEYLGSKGAGNNVLVIDGQQKRFCCQSCVSEYKQVG, the abundance fitness is -0.278 ± 0.1.

As for IMNCCEQCGEYLPSKGAGNNPLVIDGQQKRFCCQSCVSEYKQVG, the abundance fitness was -0.402 ± 0.17.
